# According to publication PMC10890041:
# Target: B8(RH)4 ligand: eightfold polymerized B domain from the native Protein A, C-terminally fused with th
# Test: static batch adsorption on an affinity membrane; Protein A ligand coupled by NHS/EDC (protocol I) to ALA-functionalized ALA@Au_PES200 membrane (6 mm); Trastuzumab 0-0.5 mg/mL in PBS pH 7.4, 1 h, 25 °C, 1000 rpm; supernatant UV-vis at 280 nm, ligand load by direct BCA
substance,measurement,value
Trastuzumab (antibody),stoichiometry N (antibody per Protein A ligand),3
